As usually defined, the Kd is the equilibrium constant for the complex coming apart. A lower Kd goes with a tighter complex. One may read the koff as the rate constant with which the complex falls apart. Lower therefore signals slow dissociation. One may read the kon as the second-order rate constant of association. A word on the EC50: it is the concentration needed to bring the measured effect to its halfway point.

These results are taken from patent US20250346673A1 (DUALITY BIOLOGICS SUZHOU, published 2025).

Numbering of substitutions follows the chain as printed. Some results are limits rather than exact numbers.

The target of experiment [1] is T1, human FcγRIIA (R167) (human, UniProt P12318 36-218, limits assumed, biotinylated (site not stated)).
T1 construct: also called Fe γ RIIA(R167); Fcγ RIJA (R167)
T1 sequence (looked up): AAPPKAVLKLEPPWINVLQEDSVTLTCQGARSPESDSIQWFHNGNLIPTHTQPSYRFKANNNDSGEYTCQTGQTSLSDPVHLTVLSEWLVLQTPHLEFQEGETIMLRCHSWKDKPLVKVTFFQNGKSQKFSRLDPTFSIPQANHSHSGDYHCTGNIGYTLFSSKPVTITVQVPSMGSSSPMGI
In words: SPR, FcγRIIA (R167); against the wild-type Fc antibody Hu033-03. As for the experimental part:
(§1) Antibody kinetics or affinity parameters were measured using BIAcore 8K and freshly fixed biotinylated human Fe γ RIIA(R167)/Fc γ RIIA (H167) SA chips. The experiment was run at 25° C. with a running buffer of 1×HBS-EP+(10 mM HEPES pH 7.4, 150 mM NaCl, 3 mM EDTA, 0.05% Surfactant P20). […] The binding and dissociation times of the antibody were 60 and 90 seconds, respectively. Two zero concentration samples are used to remove background signals. The sample was injected in a multi cycle manner, the analyte can be fully dissociated from the chip surface at the end of each cycle, and no regeneration step was applied. Data analysis was perform using Biacore Insight Evaluation Software (Version 2.0.15.12933). After deducting the reference channel (flow cell 1) and two zero concentration signals, affinity analysis was performed using a 1:1 binding model or steady-state model for curve fitting and calculation of kinetic parameters.
(SPR reads the build-up and loss of mass on a sensor chip optically.)

Experiment [2] deals with T2, human FcγRIIA (H167) (human, UniProt P12318 36-218, limits assumed, biotinylated (site not stated)).
T2 construct: also called Fey RIIA (H167)
T2 sequence (looked up): T1 sequence (looked up) with R132H
Kind of experiment: SPR (BIAcore 8K), biotinylated FcγRIIA (H167) on SA chip, antibody as analyte, 1:1 binding. As for the experimental part:
as §1

The target of experiment [3] is T2, human FcγRIIA (H167). In words: SPR, FcγRIIA (H167); against the wild-type Fc antibody Hu033-03. The procedure: as §1
In experiment [4] the target is T1, human FcγRIIA (R167). In words: SPR (BIAcore 8K), biotinylated FcγRIIA (R167) on SA chip, antibody as analyte, 1:1 binding. The procedure:
as §1

Experiment [5] addresses T3, human BDCA2 (human, UniProt Q8WTT0 1-213).
T3 construct: whole, on cells; also called hBDCA2; Blood dendritic cell antigen 2
T3 sequence (looked up): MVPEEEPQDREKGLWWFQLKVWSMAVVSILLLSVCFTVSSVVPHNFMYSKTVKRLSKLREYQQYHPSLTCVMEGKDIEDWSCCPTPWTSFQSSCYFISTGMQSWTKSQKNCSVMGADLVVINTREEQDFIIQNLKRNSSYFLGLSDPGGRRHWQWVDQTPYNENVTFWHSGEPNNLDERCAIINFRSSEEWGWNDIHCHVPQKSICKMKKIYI
Kind of experiment: FACS on CHOK1-hBDCA2 cells; EC50 table under the plot, unit from the x axis (nM) [continued) e.]. As for the experimental part:
(§2) The cells were recovered and resuspended to 2×10⁶/mL with FACS buffer (PBS+2% FBS). The cells were added to 3799 cell plates (Corning) at 100 μL/well, and the supernatant was discarded after centrifugation at 300 g. The antibodies were serially diluted with FACS buffer (Id.), the diluted antibodies were added to centrifuged cells and the cells were resuspended. The cells were incubated at 4° C. for 1 h. The incubated cells were then centrifuged at […] for 5 min and washed twice with FACS buffer. 100 μL Donkey anti-Mouse IgG (H+L) Highly Cross-Adsorbed Secondary Antibody-Alexa Fluor 488 (Invitrogen, A21202; 1:1000) secondary antibody was added to the cells, which were washed twice with FACS buffer after incubation at 4° C. for 1 h, resuspended with PBS, analyzed with FACS (BD FACS CantoTM II) instrument. The curve was fitted with GraphPad Prism6, and EC₅₀ values were calculated.

The target in the next experiment is T4, cynomolgus BDCA2 (cynomolgus monkey, UniProt A0A2K5UWP4 1-212).
T4 construct: whole, on cells; also called Cyno BDCA2; cynoBDCA2
T4 sequence: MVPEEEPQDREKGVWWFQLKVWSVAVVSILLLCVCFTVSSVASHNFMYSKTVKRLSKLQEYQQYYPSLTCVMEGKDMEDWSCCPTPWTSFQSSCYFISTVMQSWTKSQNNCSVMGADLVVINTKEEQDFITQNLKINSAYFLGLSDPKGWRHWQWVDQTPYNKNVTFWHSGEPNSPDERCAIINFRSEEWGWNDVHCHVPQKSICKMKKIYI
In words: FACS on 293F-cynoBDCA2 cells; EC50 table under the plot, unit from the x axis (nM) [continued) e.]. The procedure:
as §2

In experiment [6] the target is T5, Human BDCA2 Fc recombinant protein (human).
T5 construct: Human IgG1 Fc N-terminal of the BDCA2 extracellular domain (Asn45-Ile213), fused by a linker; also called BDCA2-Fc protein
Kind of experiment: ELISA, coated humanBDCA2 Fc. The procedure:
HumanBDCA2 Fc protein or cynoBDCA2 His protein was diluted with PBS to 1 μg/mL and added to ELISA microplates at 100 μL/well and incubated at 4° C. overnight. The plates were blocked with ELISA blocking solution (PBS phosphate buffer with 1% BSA, pH 7.4, the percentages representing mass percentages) at 37° C. for 2 hours. Sequential 10-fold serial dilutions of antibodies were added at 8 concentrations (0.0001 nM-100 nM, including 0 point control) in total at 100 μL/well. The plates were incubated at 37° C. for 1 hour, then washed 3 times and after anti-mouse IgG (Fab specific)-HRP (Sigma, A3682; 1: 5000 dilution) secondary antibodies were added at 100 μL/well, were incubated at 37° C. for 1 h. The plates were washed 3 times, TMB development fluid (EL0009, Huzhou Ying Chuang Biotechnology) was added at 100 μL/well and 50 μL 1N hydrochloric acid was added after incubation at 37° C. for 10 min to stop the development reaction. OD450 nm values were read with ELISA plate reader and the curve was fitted with GraphPad Prism6, and EC₅₀ values were calculated.
(In general: ELISA stands for enzyme-linked immunosorbent assay.)

The target of experiment [7] is T2, human FcγRIIA (H167). In words: SPR, FcγRIIA (H167); against the wild-type Fc antibody Hu033-20. As for the experimental part:
as §1

Experiment [8] addresses T1, human FcγRIIA (R167). Kind of experiment: SPR, FcγRIIA (R167); against the wild-type Fc antibody Hu033-20. The procedure: as §1
In experiment [9] the target is T3, human BDCA2. Kind of experiment: cell-based or functional assay.

B1: Hu033-03-T3 (antibody, human IgG1, kappa)
heavy: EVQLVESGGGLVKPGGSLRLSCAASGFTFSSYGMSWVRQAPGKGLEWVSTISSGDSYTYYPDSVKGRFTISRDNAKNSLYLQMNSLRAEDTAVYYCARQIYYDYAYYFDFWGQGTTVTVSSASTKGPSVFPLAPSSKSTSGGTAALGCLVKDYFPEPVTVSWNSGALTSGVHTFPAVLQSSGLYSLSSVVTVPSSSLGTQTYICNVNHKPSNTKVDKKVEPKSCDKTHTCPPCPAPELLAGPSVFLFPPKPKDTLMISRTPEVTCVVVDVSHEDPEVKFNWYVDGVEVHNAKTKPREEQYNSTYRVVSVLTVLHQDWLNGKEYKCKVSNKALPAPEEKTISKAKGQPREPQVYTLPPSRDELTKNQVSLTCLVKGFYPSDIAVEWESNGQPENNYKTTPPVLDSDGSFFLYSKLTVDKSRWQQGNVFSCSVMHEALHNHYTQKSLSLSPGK
light: DIVLTQSPASLAVSPGQRATITCRASESVSFRTSHLMHWYQQKPGQPPKLLIYGASNLESGVPARFSGSGSETDFTLTINPVEAEDTANYFCQQSIEDPPTFGGGTKVEIKRTVAAPSVFIFPPSDEQLKSGTASVVCLLNNFYPREAKVQWKVDNALQSGNSQESVTEQDSKDSTYSLSSTLTLSKADYEKHKVYACEVTHQGLSSPVTKSFNRGEC
notes: Fc-mutated Hu033-03 (IgG1)
Regarding B1, the Multiple of affinity with human FcγRIIA (R167) [1] turned out to be 4.4 fold; with human FcγRIIA (H167) [3] it was 7.3 fold. For the same molecule, the results for the Kd with human FcγRIIA (H167) [2] and with human FcγRIIA (R167) [4] were 162 nM and 303 nM, respectively. In addition, the koff came to 0.0894 s⁻¹ in the experiment with human FcγRIIA (H167) [2] and 0.225 s⁻¹ with human FcγRIIA (R167) [4]. Also, the kon was found to be 551000 M⁻¹ s⁻¹ in the experiment with human FcγRIIA (H167) [2] and 741000 M⁻¹ s⁻¹ with human FcγRIIA (R167) [4].

B2: mAb034 (antibody, V domains shown)
VH: DVQLQESGPGLVKPSQSLSLTCSVTGYSITSGYYWNWIRQFPGNKLECMGYITYDGSNNYNPSLKDRISITRDTSKNQFFLKLNSVTTEDTATYYCARGGDYDDGGFAYWGHGTLVTVSA
VL: DIQMTQSPVSLSASVGETVTITCRASGNIHNYLAWYQQKQGKSPQLLVYNAKSLVDGVPSRFSGSGSGTQYSLKINSLQPEDFGSYYCQHFWIIPYTFGGGTKLEIK
notes: Mouse hybridoma antibody
Turning to B2, the values for the EC50 (in the experiment with human BDCA2 [5]; with cynomolgus BDCA2; in experiment [6]) were 0.705 nM, 1.96 nM and under 0.3 nM, respectively.

B3: Hu033-20-T1 (antibody, human IgG1, kappa)
heavy: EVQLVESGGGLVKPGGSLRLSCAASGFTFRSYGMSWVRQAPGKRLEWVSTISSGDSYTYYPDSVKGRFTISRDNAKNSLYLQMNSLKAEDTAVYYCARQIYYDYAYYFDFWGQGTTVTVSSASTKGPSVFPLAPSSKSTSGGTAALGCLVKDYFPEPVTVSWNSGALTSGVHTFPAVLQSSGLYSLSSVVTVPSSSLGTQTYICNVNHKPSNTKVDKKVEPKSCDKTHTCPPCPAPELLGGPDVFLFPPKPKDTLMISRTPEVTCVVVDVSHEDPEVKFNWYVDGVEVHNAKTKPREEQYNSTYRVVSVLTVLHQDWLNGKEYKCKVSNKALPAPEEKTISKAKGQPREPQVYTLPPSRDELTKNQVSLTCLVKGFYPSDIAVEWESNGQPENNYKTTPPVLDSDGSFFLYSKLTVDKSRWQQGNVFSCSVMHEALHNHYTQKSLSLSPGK
light: DIVMTQSPDSLAVSLGERATINCRASESVSFRTSHLMHWYQQKPGQPPKLLIYGASNLESGVPDRFSGSGSGTDFTLTISSLQAEDVAVYYCQQSIEDPPTFGGGTKVEIKRTVAAPSVFIFPPSDEQLKSGTASVVCLLNNFYPREAKVQWKVDNALQSGNSQESVTEQDSKDSTYSLSSTLTLSKADYEKHKVYACEVTHQGLSSPVTKSFNRGEC
notes: Fc-mutated Hu033-20 (IgG1)
For the molecule B3, the Multiple of affinity with human FcγRIIA (H167) [7] was 2.5 fold. The same molecule yielded a Multiple of affinity with human FcγRIIA (R167) [8] of 5.1 fold. In addition, in the experiment with human FcγRIIA (H167) [2], the dissociation constant Kd is 489 nM, the koff was found to be 0.242 s⁻¹ and the kon was 494000 M⁻¹ s⁻¹. In the experiment with human FcγRIIA (R167) [4], this molecule displayed a Kd of 312 nM, a koff of 0.249 s⁻¹ and a kon of 798000 M⁻¹ s⁻¹.

B4: Hu033-20-T3 (antibody, human IgG1, kappa)
heavy: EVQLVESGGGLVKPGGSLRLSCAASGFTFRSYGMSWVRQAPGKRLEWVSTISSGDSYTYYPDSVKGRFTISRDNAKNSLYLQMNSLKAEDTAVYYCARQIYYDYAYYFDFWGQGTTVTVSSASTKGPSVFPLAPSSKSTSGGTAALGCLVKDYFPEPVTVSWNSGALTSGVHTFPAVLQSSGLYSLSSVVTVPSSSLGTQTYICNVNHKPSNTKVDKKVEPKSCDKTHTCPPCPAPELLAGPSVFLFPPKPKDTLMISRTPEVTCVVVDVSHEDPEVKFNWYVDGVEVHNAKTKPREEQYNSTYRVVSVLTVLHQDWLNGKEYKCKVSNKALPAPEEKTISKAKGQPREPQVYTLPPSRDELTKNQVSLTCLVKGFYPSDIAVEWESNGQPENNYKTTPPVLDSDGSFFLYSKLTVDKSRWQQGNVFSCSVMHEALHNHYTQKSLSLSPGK
light: B3 light
notes: Fc-mutated Hu033-20 (IgG1)
Take B4: the figures for the Multiple of affinity with human FcγRIIA (H167) [7] and with human FcγRIIA (R167) [8] were 8.7 fold and 6.3 fold, respectively. For the same molecule, the Kd with human FcγRIIA (H167) [2] was 154 nM; in the experiment with human FcγRIIA (R167) [4], 279 nM. In addition, the values for the koff with human FcγRIIA (H167) [2] and in the experiment with human FcγRIIA (R167) [4] were 0.087 s⁻¹ and 0.191 s⁻¹, respectively. Further, the kon with human FcγRIIA (H167) [2] came out at 563000 M⁻¹ s⁻¹; with human FcγRIIA (R167) [4] it was 683000 M⁻¹ s⁻¹.

B5: Hu033-20-T2 (antibody, human IgG1, kappa)
heavy: EVQLVESGGGLVKPGGSLRLSCAASGFTFRSYGMSWVRQAPGKRLEWVSTISSGDSYTYYPDSVKGRFTISRDNAKNSLYLQMNSLKAEDTAVYYCARQIYYDYAYYFDFWGQGTTVTVSSASTKGPSVFPLAPSSKSTSGGTAALGCLVKDYFPEPVTVSWNSGALTSGVHTFPAVLQSSGLYSLSSVVTVPSSSLGTQTYICNVNHKPSNTKVDKKVEPKSCDKTHTCPPCPAPELLAGPDVFLFPPKPKDTLMISRTPEVTCVVVDVSHEDPEVKFNWYVDGVEVHNAKTKPREEQYNSTYRVVSVLTVLHQDWLNGKEYKCKVSNKALPAPEEKTISKAKGQPREPQVYTLPPSRDELTKNQVSLTCLVKGFYPSDIAVEWESNGQPENNYKTTPPVLDSDGSFFLYSKLTVDKSRWQQGNVFSCSVMHEALHNHYTQKSLSLSPGK
light: B3 light
notes: Fc-mutated Hu033-20 (IgG1)
B5 registered a Multiple of affinity with human FcγRIIA (H167) [7] of 12.1 fold. For the same molecule, in the experiment with human FcγRIIA (R167) [8], the Multiple of affinity stood at 17.7 fold. In the experiment with human FcγRIIA (H167) [2], this molecule came in with a Kd of 95.5 nM, a koff of 0.0577 s⁻¹ and a kon of 604000 M⁻¹ s⁻¹. In the experiment with human FcγRIIA (R167) [4], this molecule gave a Kd of 41.1 nM, a koff of 0.0821 s⁻¹ and a kon of 2e+06 M⁻¹ s⁻¹.

B6: mAb033 (antibody, V domains shown)
VH: EVQMVESGGDLVKPGDSLKLSCAASGFTFRSYGMSWVRQTPDKRLEWVATISSGDSYTYYPDSVKGRFTISRDNAKNTLYLQMSSLKSEDTALYYCARQIYYDYAYYFDFWGQGTTLTVSS
VL: DIVLTQSPASLAVSLGQRATISCRASESVSFRTSHLMHWYQQKPGQPPKLLIYGASNLESGVPARFSGSGSETDFTLNIHPVEEEDAAAYFCQQSIEDPPTFGGGTKLEIK
notes: Mouse hybridoma antibody
Consider B6, for which, in the experiment with human BDCA2 [9], the “IC50 for inhibiting cytokine IFNα release, CpG-A stimulated human PBMC” value is 0.00408 nM. The EC50 with human BDCA2 [5] came out at 0.388 nM; with cynomolgus BDCA2, 1.18 nM.
